Experimental data: publication doi:10.1101/2023.08.28.555187

How the values were obtained:
soluble Fc-tagged VEGFR3 = assay: ELISA
decorin protein core = decorin protein core (UniProt P07585); assay: ELISA

Sequence of decorin protein core (P07585 31-359): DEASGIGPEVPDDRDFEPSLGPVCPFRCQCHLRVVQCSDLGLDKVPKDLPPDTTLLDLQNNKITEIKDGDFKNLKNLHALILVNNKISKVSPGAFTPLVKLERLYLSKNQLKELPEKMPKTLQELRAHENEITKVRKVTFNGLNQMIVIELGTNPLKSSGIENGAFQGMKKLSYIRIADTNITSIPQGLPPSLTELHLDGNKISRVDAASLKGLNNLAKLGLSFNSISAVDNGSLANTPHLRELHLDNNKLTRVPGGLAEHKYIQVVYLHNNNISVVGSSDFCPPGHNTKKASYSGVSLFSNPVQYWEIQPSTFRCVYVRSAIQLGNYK

Substance: decorin protein core (from UniProt P07585 31-359) (natural protein)
- Kd (soluble Fc-tagged VEGFR3): 27 nM

Substance: VEGFC (from UniProt P49767 32-227) (ligand)
- percent of bound decorin protein core displaced (soluble Fc-tagged VEGFR3): 20%

Substance: soluble Fc-tagged VEGFR3 (Fc fusion)
- Kd (decorin protein core): 47 nM
